Experimental data reported in patent US20200087414A1.
Several values for one entry are separate records, joined by “and”; a condition that tells them apart may be missing. Equal values may be shown once.

How the values were obtained:
[1] = biological target: FcgammaRIIB (CD32b), Y163 allotype (UniProt P31994); assay: SPR
[2] = biological target: FcgammaRIIIA (CD16a), F158 allotype (UniProt P08637); assay: SPR
[3] = biological target: neonatal Fc receptor (FcRn) (UniProt P55899); assay: SPR pH 6.0, Ab captured on goat anti-human IgG, FcRn flowed
Chain of neonatal Fc receptor (FcRn) (P55899 24-297 limits assumed, chain 1 of 2): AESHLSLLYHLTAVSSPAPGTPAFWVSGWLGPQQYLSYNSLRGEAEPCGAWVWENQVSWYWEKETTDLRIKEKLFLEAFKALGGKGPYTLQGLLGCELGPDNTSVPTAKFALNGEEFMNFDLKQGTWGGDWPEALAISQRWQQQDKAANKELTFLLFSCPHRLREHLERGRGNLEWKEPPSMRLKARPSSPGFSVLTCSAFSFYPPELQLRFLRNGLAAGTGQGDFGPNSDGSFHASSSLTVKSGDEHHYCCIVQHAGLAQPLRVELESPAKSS
Chain of neonatal Fc receptor (FcRn) (P61769 21-119 limits assumed, chain 2 of 2, further chain): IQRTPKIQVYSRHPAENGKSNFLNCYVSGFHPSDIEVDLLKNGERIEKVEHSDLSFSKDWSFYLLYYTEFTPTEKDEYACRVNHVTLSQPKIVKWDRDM

Chain of FcgammaRIIIA (CD16a), F158 allotype (P08637 17-208 limits assumed): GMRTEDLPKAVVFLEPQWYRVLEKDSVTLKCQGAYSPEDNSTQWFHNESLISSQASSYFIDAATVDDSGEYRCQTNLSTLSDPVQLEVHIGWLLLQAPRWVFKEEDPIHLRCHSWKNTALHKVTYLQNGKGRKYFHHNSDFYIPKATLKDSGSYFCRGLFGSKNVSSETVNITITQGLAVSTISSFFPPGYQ
Chain of FcgammaRIIB (CD32b), Y163 allotype (P31994 43-217 limits assumed): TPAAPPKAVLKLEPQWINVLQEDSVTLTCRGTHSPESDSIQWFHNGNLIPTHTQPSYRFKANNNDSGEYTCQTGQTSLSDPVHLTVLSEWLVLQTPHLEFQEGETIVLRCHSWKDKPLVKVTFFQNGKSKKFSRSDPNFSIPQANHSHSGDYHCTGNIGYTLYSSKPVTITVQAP

Question: How did the Kd [1] turn out when “T350V_L351Y_S400E_F405A_Y407V / T350V_L351Y_T366L_N390R_K392M_T394W (antibody)” was run?
Answer: The Kd was 710 nM.

Question: What does the source list for “Y349C_F405A_Y407V / S354C_T366L_T394W (antibody)”?
Answer: Kd [1]: 1200 nM; Kd [2]: 580 nM

Question: “Y349C_D399C_F405A_Y407V / S354C_T366L_K392C_T394W (antibody)” was tested. Which Kd [2] did it give?
Answer: The Kd was 630 nM.

Question: Which results are given for “D399C_F405A_Y407V / T366L_K392C_T394W (antibody)”?
Answer: Kd [1]: 1200 nM; Kd [2]: 510 nM

Question: For “T350V_L351Y_S400E_F405S_Y407V / T350V_T366L_N390R_K392M_T394W (antibody)”, which Kd [1] is on record?
Answer: The Kd was 830 nM.

Question: And the Kd [2]?
Answer: Its Kd is 420 nM.

Question: Which Kd [3] does the source give for “Y349C_T350V_F405A_Y407V / T350V_S354C_T366L_K392M_T394W (antibody)” here?
Answer: Its Kd is 4100 nM.

Question: What about the Kd [2] of the same substance?
Answer: The Kd was 460 nM.

Question: “T350V_L351Y_S400R_F405A_Y407V / T350V_T366L_N390E_K392M_T394W (antibody)” was tested. Which Kd [1] did it give?
Answer: The Kd was 890 nM.

Question: And the Kd [2]?
Answer: The Kd was 420 nM.

Question: How did the Kd [1] turn out when “Y349C_T350V_L351Y_S400E_F405A_Y407V / T350V_S354C_T366L_N390R_K392M_T394W (antibody)” was run?
Answer: Its Kd is 950 nM.

Question: And the Kd [2]?
Answer: The Kd was 420 nM.

Question: For “Q347R_T350V_L351Y_S400E_F405A_Y407V / T350V_K360E_T366L_N390R_K392M_T394W (antibody)”, which Kd [1] is on record?
Answer: Its Kd is 920 nM.

Question: And the Kd [2]?
Answer: The Kd was 420 nM.

Question: How did the Kd [3] turn out when “AZ3002 (A: T350V/L351Y/F405A/Y407V, B: T350V/T366L/K392M/T394W) (antibody)” was run?
Answer: The Kd was 4300 nM.

Question: What about the Kd [1] of the same substance?
Answer: The Kd was 1200 nM.

Question: And the Kd [2]?
Answer: Its Kd is 460 nM.

Question: “T350V_L351Y_S400R_F405A_Y407V / T350V_T366L_K392M_T394W (antibody)” was tested. Which Kd [1] did it give?
Answer: Its Kd is 890 nM.

Question: How did the Kd [3] turn out when “T350V_L351Y_S400E_F405A_Y407V / T350V_T366L_N390R_K392M_T394W (antibody)” was run?
Answer: Its Kd is 5000 nM.

Question: And the Kd [1]?
Answer: Its Kd is 900 nM.

Question: What about the Kd [2] of the same substance?
Answer: The Kd was 450 nM and 420 nM.

Question: Which Kd [1] does the source give for “T350V_F405A_Y407V / T350V_T366L_K392M_T394W (antibody)” here?
Answer: The Kd was 1000 nM.

Question: “T350V_L351Y_S400E_F405T_Y407V / T350V_T366L_N390R_K392M_T394W (antibody)” was tested. Which Kd [1] did it give?
Answer: Its Kd is 670 nM.

Question: For “Herceptin WT (wild-type IgG1 anti-HER-2/neu antibody)”, which Kd [3] is on record?
Answer: The Kd was 3700 nM.

Question: What about the Kd [1] of the same substance?
Answer: Its Kd is 1700 nM.

Question: Which results are given for “T350V_S400E_F405A_Y407V / T350V_T366L_N390R_K392M_T394W (antibody)”?
Answer: Kd [1]: 1000 nM; Kd [2]: 450 nM

Question: “T350V_L351Y_S400E_F405A_Y407V / T350V_T366L_N390R_K392F_T394W (antibody)” was tested. Which Kd [1] did it give?
Answer: Its Kd is 710 nM.

Question: “T350V_L351Y_S400R_F405A_Y407V / T350V_T366L_N390D_K392M_T394W (antibody)” was tested. Which Kd [1] did it give?
Answer: The Kd was 940 nM.

Question: How did the Kd [3] turn out when “AZ3003 (A: T350V/L351Y/F405A/Y407V, B: T350V/T366L/K392L/T394W) (antibody)” was run?
Answer: Its Kd is 3900 nM.

Question: And the Kd [1]?
Answer: The Kd was 990 nM.

Question: How did the Kd [2] turn out when F405A_Y407V / T366L_T394W (antibody) was run?
Answer: The Kd was 480 nM.

Question: “T350V_L351Y_S400E_F405A_Y407V / T350V_T366L_N390R_K392L_T394W (antibody)” was tested. Which Kd [1] did it give?
Answer: Its Kd is 910 nM.

Question: What does the source list for “AZ133 (A: L351Y/F405A/Y407V, B: T366L/K392M/T394W) (antibody)”?
Answer: Kd [3]: 5000 nM; Kd [2]: 420 nM

Question: With “AZ138 (A: F405A/Y407V, B: T366L/K392M/T394W) (antibody)” as the substance, how does the Kd [2] read?
Answer: The Kd was 460 nM.
